Measured values as given in the nanobody polyreactivity screen of Harvey et al. (2022).

Assay: yeast display, Sf9 membrane polyspecificity reagent, FACS + sequencing; frameworks hold sequencing errors
How it was run: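 Galactose-induced (36–48 hours) yeast carrying a synthetic nanobody display library were exposed to 10% biotinylated, detergent-solubilized Sf9 membrane reagent at 4 °C for 1 hour. FACS followed streptavidin microbead enrichment, using low and high (top ~1%) gates for expression (anti-HA) and reagent binding (streptavidin). Colony PCR, MiSeq 2 × 250 sequencing and CDR-length filtering followed. Labels for polyreactivity reflect the gate of origin.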

Sequence: QVQLVESGGGIVQAGGSHRLSCAASGRTFYRYAMGWYRQAPGTERELVAAITRRSGNTYYADSVKGRFTISRDNAKNNVYLQMISLKPEDTAVYYCAADPETWSPHYESLGYYWGQGTQVTVSS
- polyreactivity (PSR sort gate): high polyreactivity

Sequence: QVQLVESGGGLVQAGGSLSLSCAASGLTFANYVMGWYRQEPGKERELVAAISRSGGSTYYADSVKGRFTISRDNAKNTVYLQMNSLKPEDPAVYYCAAAAWDPKGSRYDYWGQGPQVTVSS
- polyreactivity (PSR sort gate): low polyreactivity

Sequence: QVQLVESGGGLVHAGGSLRLSCAASGIIFDDYAMGWNRQAPGKERELVAAIRSGVSTNYADSVKGRFTISRDNAKNTVYLQMNSLKPEDTAVYYCAARNTAPYFTEYDYWGQGTQVTVSS
- polyreactivity (PSR sort gate): low polyreactivity

Sequence: QVQLVESGGGLFQAGGSLRLSCAASGSTFRFNAMGWYRQAPGKERELVAAISRSGGTTYYADSVKGRFTISRDNAKNTVYLQMNSLKPEDTAVYYCNAQWWRYWPSQVIFDYWGQGTQVTVSS
- polyreactivity (PSR sort gate): high polyreactivity

Sequence: QVQLVESGGGLVQAGGSLRLSCAASGSTIATYTMGWYRQAPGKERELVAAISVSGSRTYYADSVKGRFTISRDNAKNTVYLQMNSLIPEDTAVYYCNADPPVKLYLYDYWGQGTQVTVSS
- polyreactivity (PSR sort gate): high polyreactivity

Sequence: QVQLVESGGGLVQAGGSLRLSCAASGFIFAPNVMGWYRQAPGKERELVAAINISGGSTSYADSVKGRFTISRDNAKNTVYLQMNSLKPEDTAVYYCAAEIPAYAYSYSYDYWGQGTQVTVSS
- polyreactivity (PSR sort gate): low polyreactivity

Sequence: QVQLVESGGGLVQAGGSLRLSCAASGSTSVGNAMGWSRQAPGKERELVAAISRIGGTTYYADSVKGRFTISRDNAKNTVYLQMNSLKPEDPAVYYCNVLKRYWSGRVDYWGQGTQVTVSS
- polyreactivity (PSR sort gate): high polyreactivity

Sequence: QVQLVESGGGLVQAGGSLRLSCAASGRIFAYYAMGWYRQAPGKERELVATISTGGGTYYADSVKGRFSISRDNAKNTVYLQMNSLKPEDTAVYYCAAAPYWYYGYYYWGQGTQVTVSS
- polyreactivity (PSR sort gate): high polyreactivity

Sequence: QVQLVESGGGLVQAGGSLRLSCAASGSIFGINVMGWYRHAPGKDREFVAAITSGTSTYYADSVKGRFTISRDNAKNSVYLQMNSLKPEDTAVYYCAALWSSRFVVHPQWYDYWGQGTQVTVSS
- polyreactivity (PSR sort gate): low polyreactivity

Sequence: QDQLVESGGGLVQAGGSLRLSCAASGSTFSRYAMGWYRQAPGKERELVAAITSSGGSTYYADSVKGRFTISRDNAKNTVYLQMNSLKPEDTAVYYCAASYQVRYDYWGQGTQVTVSS
- polyreactivity (PSR sort gate): high polyreactivity

Sequence: QVQLVESGGGLVQAGGSLRLSCAASGLINYYYAMGWYRQAPGKERELVAAISGSSGASTYYADSVKGRFTISRDNAKNTVYLQMNSLKPEDTAVYYCATPVASVTGYDYWGQGTQVTVSS
- polyreactivity (PSR sort gate): low polyreactivity

Sequence: QVQLVESGGGLVQAGGSLRLSCAASGNTINVNTMGWYRQAPGKERELVAAISKRGGSTYYADSVKGRFTISRDNAKNTVYLQMNSLKPEDTAVYYCAKQVSLPRYHYGSAPYGYWGQGTQVTVSS
- polyreactivity (PSR sort gate): high polyreactivity

Sequence: QVQLVESGGGLVQAGGSLRLSCAASGSSFNRYAMGWYRQAPGKERELVAGISYRGGTYYADSVKGRFTISRDNAKNTVYLQMNSLKPEDTAVYYCNVVRRGTTSYDDYDYWGQGTQVTVSS
- polyreactivity (PSR sort gate): high polyreactivity

Sequence: QVQLVESGGGLVQAGGSLRLSCAASGSTFSSSAMGWYRQAAGKERELVAAITSSGGSPYYADSVKGRLTISRDNAKNTVYLQMNSLKPEDTAVYYCAAADVIFWLYYYWGQGTQLTVSS
- polyreactivity (PSR sort gate): low polyreactivity

Sequence: QVQLVESGGGLVQAGGSLRLSCAASGSIFERYAMGWYRQAPGKERELVAAISWRGGSTYYADSVKGRFTISRDNAKNTVYLQMNSLKPEDTAVYYCAAGARYVKQGYGYWGQGTQVTVSS
- polyreactivity (PSR sort gate): high polyreactivity

Sequence: QVQLVESGGGLVKAGGSLRLSCAASGSTFERYAMGCYRQAPGKEMELVAAINWSGGGTYYADSVKGRFTISRDNAKNTVYLQMNSLKPVDTAVYYCAADSGTVVFSLWWYEYYYWGQGTQVTVSS
- polyreactivity (PSR sort gate): low polyreactivity

Sequence: QVQLVESGGGLVQAGGTLRLSCAASGSIFRYYAMGWYRQAPGKERELVATITSTGGSTYYADSVKGRFTISRDNAKNTVYLQMNSLKPEDTAVYYCAARNKLYVTVRGYYLSGYWGQGTQVTVSS
- polyreactivity (PSR sort gate): high polyreactivity

Sequence: QVQLVESGGGLVQAGGSLRLSCAASGSIFYSNAMGWYRQAPGKERELVAAIRTSAGSTYYADSVKGRFTISRDYAKNTVYLQMTSLKPEDTAVYYCAAVTTYYYYDVTDYAYEYYYWGQGTQVTVSS
- polyreactivity (PSR sort gate): low polyreactivity

Sequence: QVQLVESGGVLFQAGGSLRLSCAAAGFTFKYNAMGWYRQAPGKERELVASITSGATNYADSVKGRFTIARDNAKNTVSLQLTTLKPEETAVYDCAVVDVHYTRAKVGYAYGAYDYWGQCTQVTVSS
- polyreactivity (PSR sort gate): low polyreactivity

Sequence: QVQLVESGGGLVQAGGSLRLSCAASGRTFGDYAMGWSRQAPGKERELVAAIDVDGGSTYYADSVKGRFTISRDNAKNTVYLQMNSLKPEDTAVYYCNAQAPYWFSFYSDHKYDYWGQGTQVTVSS
- polyreactivity (PSR sort gate): low polyreactivity

Sequence: QVQLVESGGGLVQAGGSLRLSCAASGITFYGYAMGWYRQAPGKERELVAAISESGGSTYYADSVKGRFTISRDNAKNTVYLQMNSLKPEDTAVYYCNAESYSTWSFGHRYEYDYWGQGTQVTVSS
- polyreactivity (PSR sort gate): low polyreactivity

Sequence: QVQLVESGGGLVQAGGSLRLSCAASGLTFVFYAMGWYRQAPGKERELVAAISSSGGSTNYADSVKGRFTISRDNAKNTVYLQMNSLKPEDTAVYYCNARGRSGGGRYDYWGQGTQVTVSS
- polyreactivity (PSR sort gate): high polyreactivity

Sequence: QVQLVESGGGLVQAGGSLRLSCAASGRIFVYNVMGWYRQAPGKERELVAAISWGTGSTYADSVKGRFTISRDNAKNTVYLQMNSLKPEDTAVYYCAADSFIPPYDHWGQGTQVTVSS
- polyreactivity (PSR sort gate): low polyreactivity

Sequence: QVQIVESGGGLVQAGGSLRLSCAASGRIRSYAMGWYRQAPGKERELVAAISSRGGSTYYADSVKGRFTISRDNAKNTVYLLMNSLKPEDTAVYYCAKGGYCGQGTQVTVSS
- polyreactivity (PSR sort gate): high polyreactivity

Sequence: QVQLVESGGGLVQAGGSLRLICAASGLTYFSYAMGWYRQAPGKQREFVAAITRRGGRTYYADSVKGRFTISRDNAKYTVYLQMNSLKPEDTAVYYCNAVPVLISVYRMEYWGQGTQVTVSS
- polyreactivity (PSR sort gate): high polyreactivity

Sequence: QLQLVESGGGLVQAGGSLRLSCAASGLTFYWYAMGWYRQAPGKERELVAAITSTGSTYYADSVKGRFTISRDNAKNTVYLQMNILKPEDTAVYYCNADFPANWGWDYDYWGQGTQVTVSS
- polyreactivity (PSR sort gate): low polyreactivity

Sequence: QVQLVESGGGLVQAGGSLRLSCAASGRTFLTNAMGWYRQAPGKERELVAAIRWSGTSTYYADSVKGRFTISRDNAKNTVYLQMNSLKPEDTAVYYCAARKVYGSKYGYWGQGTQVTVSS
- polyreactivity (PSR sort gate): high polyreactivity

Sequence: QVQLVESGGGLVQAGGSLRLSCAASGLTFKKYAMGWYRQAPGKERELVAAISRGGSTNYADSVKGRFTISRDNAKNTVYLQMNSLKPDDTAVYYCAAEGYWHVYADYYLEDYYWGQGTQVTVSS
- polyreactivity (PSR sort gate): high polyreactivity

Sequence: QVQLVESGGGLVQAGGSLRLSCASSGFTFSRNVMGWYRQAPGKETELVADITLSGASTYYADSVKGRFTISRDNAKNPDYLQMNSLKPEDTAVYYCAADPYHWRWGWRHVYWGQGTQVTVSS
- polyreactivity (PSR sort gate): low polyreactivity

Sequence: QVKLVESAGGLVQARGSLRLSCAGSGITFVRNAMGWYRQAPGKERELVAAISSGGSTYYADSVKGRFTISRDNAKNTVYLQMNSLKPEDTAVYYCNAQIYGRLYRYRWHFYWGQGTQVTVSS
- polyreactivity (PSR sort gate): high polyreactivity

Sequence: QVQLVESGGGLVQAGRSLRLSCAASGRIFAQNAMGWYRQAPGKERELVAAISWGGGGTYYADSVKGRFTISRDNAKNTVYLQMNSLKPEDTAVYYCAADSPGFGAWDRYEYWGQGTQVTVSS
- polyreactivity (PSR sort gate): low polyreactivity
